Kd, koff and kon data for three molecules are collected here from patent US20200062832A1 (QUIDEL, published 2020).

One may read the Kd as the free concentration of one partner at which half of the binding sites on the other are occupied at equilibrium, for simple one-to-one binding. By koff is commonly meant the rate constant with which the complex falls apart. Usually kon stands for a measure of how fast the partners come together.

The target of experiment [1] is T1, recombinant DbpA full length protein (without signal sequence), Borrelia burgdorferi decorin-binding protein A (Borrelia burgdorferi, UniProt O50917 30-191).
T1 construct: also called DpbA; DbpA antigen
T1 sequence: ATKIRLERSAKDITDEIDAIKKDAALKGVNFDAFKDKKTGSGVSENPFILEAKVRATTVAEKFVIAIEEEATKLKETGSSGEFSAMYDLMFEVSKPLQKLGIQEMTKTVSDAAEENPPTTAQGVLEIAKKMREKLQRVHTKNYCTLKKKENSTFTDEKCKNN
Kind of experiment: Biacore SPR (summary table). (In general: Surface plasmon resonance follows binding to a sensor surface in real time, without labels.)

Experiment [2] deals with T1, recombinant DbpA full length protein …. The experiment in a line: Octet BLI, mAb on anti-mIgG Fc sensor, DbpA 100 nM. On the technique in general: BLI is a label-free optical method that tracks binding on a fibre tip over time.
The target is the same in experiment [3]. The experiment in a line: Octet BLI, DbpA 100 nM (summary table).
Experiment [4] shares this target. Kind of experiment: Biacore SPR, supernatant over DbpA chip.
Experiment [5] shares this target. Kind of experiment: Biacore SPR, DbpA on CM5 chip.

B1: MAb 8C10 (mouse hybridoma monoclonal antibody) (antibody)
heavy: QVQLQQSGAELMKPGASVKLSCKAAGYTFTDYWIEWVKQRPGHGLEWIGEILPGSGSTKDNERFKGKATFTADTSSNTAYMQLSSLTTEDSAIYYCARREWGYYFDYWGQGTTLTVSSAKTTPPSVYPLAPGSAAQTNSMVTLGCLVKGYFPEPVTVTWNSGSLSSGVHTFPAVLQSDLYTLSSSVTVPSSTWPSQTVTCNVAHPASSTKVDKKIVPRDCGCKPCICTVPEVSSVFIFPPKPKDVLTITLTPKVTCVVVDISKDDPEVQFSWFVDDVEVHTAQTKPREEQINSTFRSVSELPIMHQDWLNGKEFKCRVNSAAFPAPIEKTISKTKGRPKAPQVYTIPPPKEQMAKDKVSLTCMITNFFPEDITVEWQWNGQPAENYKNTQPIMDTDGSYFVYSKLNVQKSNWEAGNTFTCSVLHEGLHNHHTEKSLSLSPGK
light: DIVMTQSHKFMSTSVGDRVSITCKASQDVSTAVAWYQQKPGQSPKLLIYWASTRHTGVPDRFTGSGSGTDYTLTISSVQAEDLALYYCQQHYSTPYTFGGGTKLEIKRADAAPTVSIFPPSSEQLTSGGASVVCFLNNFYPRDINVKWKIDGSERQNGVLNSWTDQDSKDSTYSMSSTLTLTKDEYERHNSYTCEATHKTSTSPIVKSFNRGEC
notes: Mouse IgG (gamma/kappa), tested as hybridoma culture supernatant; Signal peptides are positions 1-19 (heavy) and 1-20 (light); copies: 2 + 2
B1: the Kd in experiment [1] was 1.2 pM; in experiment [2] it was less than 1 pM; in experiment [3], less than 1 pM; in experiment [4], 1.2 pM. Further, the koff in experiment [2] was less than 1e-07 s⁻¹; in experiment [3], less than 1e-07 s⁻¹; in experiment [4] it was 1.3e-07 s⁻¹. In addition, the kon came to 356000 M⁻¹ s⁻¹ in experiment [2], 356000 M⁻¹ s⁻¹ in experiment [3] and 100000 M⁻¹ s⁻¹ in experiment [4].

B2: MAb 6G8 (mouse hybridoma monoclonal antibody) (antibody)
heavy: QVQLQQPGAELVKPGASVKLSCKASGYTFTRYWMYWVKQRPGRGLEWIGRLDPNSGVTKYNEKFKSKATLTVDKSSSTAYMQLSSLTSEDSAVYYCVRDDSWYFDVWGTGTTVTVSSAKTTPPSVYPLAPGSAAQTNSMVTLGCLVKGYFPEPVTVTWNSGSLSSGVHTFPAVLQSDLYTLSSSVTVPSSTWPSQTVTCNVAHPASSTKVDKKIVPRDCGCKPCICTVPEVSSVFIFPPKPKDVLTITLTPKVTCVVVDISKDDPEVQFSWFVDDVEVHTAQTKPREEQINSTFRSVSELPIMHQDWLNGKEFKCRVNSAAFPAPIEKTISKTKGRPKAPQVYTIPPPKEQMAKDKVSLTCMITNFFPEDITVEWQWNGQPAENYKNTQPIMDTDGSYFVYSKLNVQKSNWEAGNTFTCSVLHEGLHNHHTEKSLSLSPGK
light: EIQMTQSPSSMSASLGDRITITCQATQDIVKNLNWYQQKPGKPPSFLIYYATELAEGVPSRFSGSGSGSDYSLTINNLESQDFADYFCLQFYAFPLTFGAGTKLELRRADAAPTVSIFPPSSEQLTSGGASVVCFLNNFYPRDINVKWKIDGSERQNGVLNSWTDQDSKDSTYSMSSTLTLTKDEYERHNSYTCEATHKTSTSPIVKSFNRGEC
notes: Mouse IgG1 kappa, tested as hybridoma culture supernatant; copies: 2 + 2
With B2, the Kd in experiment [1] was found to be 0.25 pM; in experiment [2], 976 pM; in experiment [3], 976 pM; in experiment [4], 0.25 pM. The koff in experiment [2] worked out at 0.000977 s⁻¹; in experiment [3], 0.000977 s⁻¹; in experiment [4], 5e-08 s⁻¹. In addition, the kon in experiment [2] came to 1e+06 M⁻¹ s⁻¹; in experiment [3], 1e+06 M⁻¹ s⁻¹; in experiment [4] it was 200000 M⁻¹ s⁻¹.

B3: 6G8 chimeric IgM (antibody)
heavy: QVQLQQPGAELVKPGASVKLSCKASGYTFTRYWMYWVKQRPGRGLEWIGRLDPNSGVTKYNEKFKSKATLTVDKSSSTAYMQLSSLTSEDSAVYYCVRDDSWYFDVWGTGTTVTVSSAKTTPPSVYPLAPGSAAQTNSMVTLGCLVKGYFPEPVTVTWNSGSLSSGVHTFPAVLQSDLYTLSSSVTVPSSTWPSQTVTCNVAHPASSTKVDKKILPVIAELPPKVSVFVPPRDGFFGNPRKSKLICQATGFSPRQIQVSWLREGKQVGSGVTTDQVQAEAKESGPTTYKVTSTLTIKESDWLSQSMFTCRVDHRGLTFQQNASSMCVPDQDTAIRVFAIPPSFASIFLTKSTKLTCLVTDLTTYDSVTISWTRQNGEAVKTHTNISESHPNATFSAVGEASICEDDWNSGERFTCTVTHTDLPSPLKQTISRPKGVALHRPDVYLLPPAREQLNLRESATITCLVTGFSPADVFVQWMQRGQPLSPEKYVTSAPMPEPQAPGRYFAHSILTVSEEEWNTGETYTCVVAHEALPNRVTERTVDKSTGKPTLYNVSLVMSDTAGTCY
light: EIQMTQSPSSMSASLGDRITITCQATQDIVKNLNWYQQKPGKPPSFLIYYATELAEGVPSRFSGSGSGSDYSLTINNLESQDFADYFCLQFYAFPLTFGAGTKLELRRADAAPTVSIFPPSSEQLTSGGASVVCFLNNFYPRDINVKWKIDGSERQNGVLNSWTDQDSKDSTYSMSSTLTLTKDEYERHNSYTCEATHKTSTSPIVKSFNRGEC
notes: Heavy chain is mouse VH-CH1 plus human IgM mu chain CH2-4; also called 6G8 chimera; 6G8 (26394.1.a)
Turning to B3, in experiment [5], the Kd turned out to be 1.96 pM, the koff was found to be 2.45e-05 s⁻¹ and the kon was 1.25e+07 M⁻¹ s⁻¹.
